In patent US20020164600A1 (Dana-Farber, published 2002):

T1: human PD-L2 (human, UniProt Q9BQ51 20-273)
T1 construct: Expressed on transfected COS and 300.19 cells (300-hPD-L2); also called hPD-L2
T1 sequence: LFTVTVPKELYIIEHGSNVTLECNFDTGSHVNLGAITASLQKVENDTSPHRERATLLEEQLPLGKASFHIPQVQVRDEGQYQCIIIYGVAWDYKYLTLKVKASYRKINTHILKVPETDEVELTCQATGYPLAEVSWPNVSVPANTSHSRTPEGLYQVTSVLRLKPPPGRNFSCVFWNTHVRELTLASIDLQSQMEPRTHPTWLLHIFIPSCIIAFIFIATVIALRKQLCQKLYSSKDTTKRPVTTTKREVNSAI

B1: IgG2a (control Ig) (other, mouse, UniProt P01863 98-330, looked up)
chain: EPRGPTIKPCPPCKCPAPNLLGGPSVFIFPPKIKDVLMISLSPIVTCVVVDVSEDDPDVQISWFVNNVEVHTAQTQTHREDYNSTLRVVSALPIQHQDWMSGKEFKCKVNNKDLPAPIERTISKPKGSVRAPQVYVLPPPEEEMTKKQVTLTCMVTDFMPEDIYVEWTNNGKTELNYKNTEPVLDSDGSYFMYSKLRVEKKNWVERNSYSCSVVHEGLHNHHTTKSFSRTPGK
notes: Control protein

How the values were obtained:
[1] = molecular target: T1, human PD-L2; assay: FACS on transfected COS cells
[2] = molecular target: B1; assay: FACS on transfected COS cells

| binding result [1] | binding result [2] | Binder |
| --- | --- | --- |
| no binding |  | B1 |
|  | no binding | mouse PD-L2 (ligand, Expressed on transfected COS, CHO.I-A^d, CHO.I-A^d.B7-2 and 300.19 cells; also called murine PD-L2; mPD-L2) LFTVTAPKEVYTVDVGSSVSLECDFDRRECTELEGIRASLQKVENDTSLQSERATLLEEQLPLGKALFHIPSVQVRDSGQYRCLVICGAAWDYKYLTVKVKASYMRIDTRILEVPGTGEVQLTCQARGYPLAEVSWQNVSVPANTSHIRTPEGLYQVTSVLRLKPQPSRNFSCMFWNAHMKELTSAIIDPLSRMEPKVPRTWPLHVFIPACTIALIFLAIVIIQRKRI |
